The results in this text go back to publication PMC2120550.

This experiment has as its target lysin from the pink abalone (H. corrugata) (Haliotis corrugata (pink abalone)). The experiment can be described thus: cross-linking.

As a reminder, the stoichiometry N is the number of molecules, sites or subunits per partner or assembly.

Chain of lysin from the pink abalone (H. corrugata) (natural protein) (P19448 19-155 limits assumed): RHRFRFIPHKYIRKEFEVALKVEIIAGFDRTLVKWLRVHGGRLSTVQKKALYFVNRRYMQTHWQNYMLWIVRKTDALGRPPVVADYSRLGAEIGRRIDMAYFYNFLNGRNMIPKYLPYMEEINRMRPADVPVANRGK

In turn, “lysin from the pink abalone (H. corrugata) (natural protein)” showed a stoichiometry N of 2.
